A value given as a limit tells only on which side of the number the result lay.

One series addresses T1, NPR-B receptor (Mus musculus, UniProt Q6VVW5).
T1 construct: These cells express endogenously the NPR-B receptor on the cell surface; endogenous in cells; host or cells: NIH-3T3 (murine embryo fibroblast)
T1 sequence (Q6VVW5 23-1047 limits assumed): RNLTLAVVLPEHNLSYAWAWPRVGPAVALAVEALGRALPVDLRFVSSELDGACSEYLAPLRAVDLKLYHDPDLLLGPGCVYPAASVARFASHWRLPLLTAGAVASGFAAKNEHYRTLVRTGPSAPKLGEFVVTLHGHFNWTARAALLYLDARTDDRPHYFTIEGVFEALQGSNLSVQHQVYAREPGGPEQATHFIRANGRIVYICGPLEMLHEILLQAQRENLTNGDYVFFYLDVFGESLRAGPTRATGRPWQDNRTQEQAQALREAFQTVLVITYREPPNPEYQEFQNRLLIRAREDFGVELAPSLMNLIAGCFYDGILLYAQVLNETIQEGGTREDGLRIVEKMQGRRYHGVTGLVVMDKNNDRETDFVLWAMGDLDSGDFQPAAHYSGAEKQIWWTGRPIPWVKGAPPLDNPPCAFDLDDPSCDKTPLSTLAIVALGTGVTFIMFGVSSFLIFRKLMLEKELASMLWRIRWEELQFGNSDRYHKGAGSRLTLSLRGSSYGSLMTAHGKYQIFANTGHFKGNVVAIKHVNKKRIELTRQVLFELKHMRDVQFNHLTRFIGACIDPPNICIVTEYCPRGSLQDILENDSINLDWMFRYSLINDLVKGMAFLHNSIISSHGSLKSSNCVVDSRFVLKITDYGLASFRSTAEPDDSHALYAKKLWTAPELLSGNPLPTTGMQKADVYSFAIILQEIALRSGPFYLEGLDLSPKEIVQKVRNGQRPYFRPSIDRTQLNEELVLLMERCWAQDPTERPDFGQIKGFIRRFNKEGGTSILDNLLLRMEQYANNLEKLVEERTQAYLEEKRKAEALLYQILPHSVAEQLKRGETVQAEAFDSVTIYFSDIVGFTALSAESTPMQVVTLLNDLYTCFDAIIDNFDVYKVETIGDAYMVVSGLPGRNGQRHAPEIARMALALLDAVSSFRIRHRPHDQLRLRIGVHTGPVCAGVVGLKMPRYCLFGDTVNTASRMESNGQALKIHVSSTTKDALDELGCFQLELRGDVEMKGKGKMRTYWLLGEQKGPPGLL
Kind of series: Functional cGMP stimulation in NIH-3T3 cells with CNP variants. The settings on record: residual NPR-B activity vs non-PEGylated CNP-38, cGMP. The format is cell-based, murine. How it is done: As used herein “EC50” with regard to controlled-release CNP agonist and CNP agonist refers to the concentration of controlled-release CNP agonist and CNP agonist with which a half-maximum cGMP production of NPR-B is elicited. NPR-B activity in the form of its EC50 of the controlled-release CNP agonist, of the released CNP agonist and of CNP-22 is measured by cultivating NIH-3T3 (Murine Embryo Fibroblast cell line) cells which express NPR-B on their cell surface, incubating the cells with the controlled-release CNP agonist, the corresponding released CNP agonist or CNP-22, respectively, and determining the intracellular production of the second messenger cGMP with a standard cGMP assay. In particular the assay is performed as follows: • (1) murine NIH-3T3 cells expressing endogenous NPR-B are cultivated in DMEM F-12 medium with 5% FBS and 5 mM glutamine at 37° C. and 5% CO2; • (2) for each assay 50,000 cells are resuspended in Dulbecco's PBS with IBMX and incubated with either the controlled-release CNP agonist, the corresponding released CNP agonist or CNP-22; each in different concentrations; • (3) after incubating for 30 min at 37° C. and 5% CO2, the cells are lysed and cGMP levels are determined; and • (4) generating an EC50 value from the determined cGMP levels.
Functional activity of CNP variants were determined in a cell-based assay with NIH-3T3 cells (Murine Embryo Fibroblast cell line). These cells express endogenously the NPR-B receptor on the cell surface. Stimulation of the NPR-B receptor with CNP leads to intracellular production of the second messenger cGMP which is detected with a commercially available cGMP assay. NIH-3T3 cells were routinely cultured in DMEM F-12 medium with 5% FBS and 5 mM glutamine at 37° C. and 5% CO2. For each assay, 50,000 cells were resuspended in stimulation buffer (Dulbecco's PBS with IBMX) and incubated with the CNP variants in different concentrations. CNP (dilutions were made in PBS with 0.2% BSA). After incubation of 30 min at 37° C. and 5% CO2, the cells were lyzed and cGMP levels were determined with a commercially available cGMP TR-FRET assay (Cisbio, cGMP kit, Cat. No. 62GM2PEB). PEGylated CNP variants were always characterized in comparison with the non-PEGylated version in the same experiment batch. If possible, evaluation of the residual activity was done via the relative EC50-parameter of the resulting dose-response curve (restricted model with common slope).
11i was incubated under physiological conditions (1 mg CNP-38 eq/mL), as described in Example 20. After 7 d, released CNP-38 was isolated by RP-HPLC and analyzed for bioactivity as described in Example 21.

In a further series the target is T2, NPR-C (Homo sapiens, UniProt P17342).
T2 construct: expressed in transfected cells; host or cells: Hek293, lentiviral transduction, CMV promoter, puromycin selection
T2 sequence (P17342 27-541): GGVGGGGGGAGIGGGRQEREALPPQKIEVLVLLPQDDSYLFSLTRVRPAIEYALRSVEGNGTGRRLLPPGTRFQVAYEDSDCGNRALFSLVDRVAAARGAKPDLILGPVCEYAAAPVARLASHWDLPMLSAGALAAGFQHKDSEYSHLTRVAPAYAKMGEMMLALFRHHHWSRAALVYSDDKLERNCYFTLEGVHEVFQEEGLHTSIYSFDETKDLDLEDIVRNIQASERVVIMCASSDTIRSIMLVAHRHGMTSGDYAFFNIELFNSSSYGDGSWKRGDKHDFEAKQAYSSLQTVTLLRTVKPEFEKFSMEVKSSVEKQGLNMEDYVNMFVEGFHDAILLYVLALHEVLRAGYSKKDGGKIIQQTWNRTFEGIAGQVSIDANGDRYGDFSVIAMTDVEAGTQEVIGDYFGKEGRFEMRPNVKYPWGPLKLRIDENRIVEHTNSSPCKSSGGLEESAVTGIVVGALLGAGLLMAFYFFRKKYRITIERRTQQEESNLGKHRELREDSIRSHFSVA
Kind of series: NPR-C affinity assay. The format is binding. As to conditions: residual NPR-C affinity, NPR-C expressing Hek293 cells, competition with fluorescein-labelled CNP 27d.

Series [1] in a line: Evaluation of cardiovascular effects in the conscious telemetered mouse (subcutaneous administration). The settings on record: for MAP: mean ± SD, n = 4. The series is classed as in vivo, Crl:CD1(ICR) mice. From the text: The purpose of this study was to evaluate the haemodynamic side effects of 11i at dose level equivalent to a CNP-38 dose level eliciting haemodynamic side effects (decrease in blood pressure) in the telemetered mouse.
Male Crl:CD1(ICR) mice (age range 8-13 weeks and body weight range 27.3-35.6 g at start of dosing) were surgically implanted with a TA11PA-C10 telemetry transmitter (Data Sciences International (DSI)) in the carotid artery. The body of the transmitter was placed subcutaneously in the lateral flank of the mouse. The mice were dosed subcutaneously in a latin square crossover design with at least 72 hours between dosing occasions. Mice were dosed with 1) vehicle (10 mM succinate, 46.0 g/L mannitol, pH 4.00), 2) CNP-38 (800 μg CNP-38/kg, 10 mM succinate, 46.0 g/L mannitol, pH 4.00) or 3) 11i (800 μg CNP-38 eq/kg, 10 mM succinate, 46.0 g/L mannitol, pH 4.00). At least four mice were included at each dose level. Blood pressure (systolic (SAP), diastolic (DAP) and mean (MAP) and heart rate (HR, derived from blood pressure), were recorded using a digital data capture system linked with a DSITM Ponemah data acquisition and analysis system. The capture system allowed recording of the cardiovascular parameters whilst the mice were in individual cages. On the day of each test session the animals were weighed and a predose recording was performed for at least 60 min prior to dosing. Each mouse was returned to the home cage and the cardiovascular parameters were recorded for approximately 48 hours postdose. Blood pressure and HR were reported at the following time points: −30, −20, −10, 5, 15 and 30 min postdose and 1, 2, 6, 12, 18, 24, 30, 36, 42 and 48 hours postdose. Each time point was presented as the average value of five minute's recording prior to the time point. The monitoring period was selected to cover exposure to the test items both prior to and after Tmax.

For series [2] the following is noted: 0.146 mg CNP-38 eq/kg. How it is done:
Plasma total CNP-38 concentrations (conjugated and released CNP-38) were determined by quantification of the N-terminal signature peptide (sequence: […]) and C-terminal signature peptide (sequence: […]) after tryptic digestion.
LC-MS analysis was carried out by using an Agilent 1290 UPLC coupled to an Agilent 6550 iFunnel Q-TOF mass spectrometer via an ESI probe. Chromatography was performed on a Waters Acquity BEH300 C18 analytical column (50×2.1 mm I.D., 1.7 μm particle size) with pre-filter at a flow rate of 0.25 mL/min (T=25° C.). Water (UPLC grade) containing 0.2% formic acid (v/v) was used as mobile phase A and acetonitrile (UPLC grade) with 0.2% formic acid as mobile phase B. The gradient system comprised a short isocratic step at the initial parameters of 0.1% B for 3.0 min followed by a linear increase from 0.1% B to 16% B in 17 min. Mass analysis was performed in the single ion monitoring (SIM) mode, monitoring the ions m/z 482.75 [M+2H]^2+ (N-terminal) and m/z 824.36 [M+H]^1+ (C-terminal). As internal standard deuterated CNP-38 peptide was used.
Calibration standards of CNP-38 conjugate in blank plasma were prepared as follows: The thawed Li-heparin cynomolgous plasma was first homogenized, then centrifuged for 5 minutes. […] These solutions were used for the generation of a calibration curve.
For sample preparation, protein precipitation was carried out by addition of 300 μL of pre-cooled (0° C.) methanol to 100 μL of the plasma sample. 200 μL of the supernatant were transferred into a new well-plate and evaporated to dryness (under a gentle nitrogen stream at 35° C.). 100 μL of reconstitution solvent (Thermo digestion buffer, order number 60109-101, Thermo Fisher Scientific GmbH, Dreieich, Germany) were used to dissolve the residue. 20 μg of trypsin (order number V5111, Promega GmbH, Mannheim, Germany) were dissolved in 20 μL of 10 mM acetic acid. 2 μL of the trypsin solution were added to each cavity.
After 4 hours incubation at 37° C. (water bath), 5 μL of a 0.5 M TCEP solution were added to each cavity and incubated again for 5 min at 96° C. After the samples had cooled to room temperature, 3 μL acetonitrile were added. The eluates were transferred into vials. 10 μL were injected into the UPLC-MS system.
Male cynomolgus monkeys (2-4 years old, 3-5 kg) received either a single subcutaneous administration (n=3 animals) of compound 10f or a single subcutaneous (n=3 animals) administration of 11i at a dose of 0.146 mg CNP-38 eq/kg. Blood samples were collected up to 168 h post dose, and plasma was generated. Plasma levels of total CNP-38 content were analyzed as described in example 24. In order to analyze the plasma content of free CNP-38, the blood samples were acidified after withdrawal by adding 20 vol % of 0.5 M sodium citrate buffer pH 4 to stop further CNP-38 release from the conjugate. Free CNP-38 levels in plasma can e.g. be determined by ELISA using a CNP antibody that binds to the ring region of CNP, as described in the literature (U.S. Pat. No. 8,377,884 B2), or by LC-MS/MS.

With “Permanent N-Terminal CNP-38 PEG 5 kDa Conjugate [Compound 15e]”, on NPR-B receptor, the “EC50 compound/EC50 CNP-38” value was over 5. The “IC50 of PEGylated CNP-38/IC50 CNP-38” value at NPR-C came out at 0.53.
Turning to “Reversible Lys26 CNP-38 PEG4×10 kDa Conjugate [Compound 11i]”, in series [1] (800 μg CNP-38 (eq)/kg sc), the HR entry is recorded as “not impacted”. For the same substance, the “MAP versus vehicle at the remaining ten time points” value in series [1] (1 to 48 hours postdose, 800 μg CNP-38 (eq)/kg sc) is “no difference in MAP”. Also, the “change in MAP compared to predose” value in series [1] (5, 15 and 30 min post dose, 800 μg CNP-38 (eq)/kg sc, CNP-38: 3 of 4 animals) was “same physiological increase in MAP”. Further, the MAP in series [1] (5 min post dose, 800 μg CNP-38 (eq)/kg sc) was determined as 122.8 ± 5.9 mmHg; in series [1] (15 min post dose, 800 μg CNP-38 (eq)/kg sc), 121.5 ± 7.5 mmHg; in series [1] (30 min post dose, 800 μg CNP-38 (eq)/kg sc), 111.5 ± 13.7 mmHg; in series [1] (predose, 800 μg CNP-38 (eq)/kg sc), 106.4 ± 10.7 mmHg. Further, the “effect on blood pressure” value in series [1] (subcutaneous, dosage equivalent to CNP-38 800 μg/kg) is given as “did not decrease blood pressure”. For the same substance, in series [2] (single sc), the dose site reactions result is “No dose site reactions were observed”. This substance returned a terminal half life in series [2] (single sc, C-terminal and N-terminal peptide) of 72 to 96 h. Also, the “total CNP-38 plasma level after 168 h” value in series [2] (single sc, C-terminal peptide) is reported as “ca. 30 % of cmax”. Moreover, the “total CNP-38 tmax” value in series [2] (single subcutaneous administration) came out at 24 h.

The record behind these values is patent publication US12544428B2, “Controlled-release CNP agonists with reduced side-effects” (ASCENDIS PHARMA GROWTH DISORDERS A/S, priority 2016, dated 2026).
